Measurements as given in patent US10358638B2, “Method of producing 1,5-pentadiamine using lysine decarboxylase mutant having improved thermal stability” (AJINOMOTO CO., INC., priority 2014, dated 2019).

Assays:
[1] = Remaining lysine decarboxylase activity of cell free extract after incubation at 68° C.; format: biochemical, Escherichia coli
Method: (§1) The activity of the lysine decarboxylase was measured according to the method described in JP patent application laid-open Publication No. 2008-193899. 0.1 mL of a microbial cell suspension or a treated product thereof was added to 1 mL of a reaction solution containing 100 mM MES-NaOH buffer (pH 6.0), 10 g/L (55 mM) of L-lysine hydrochloride and 26.5 mg/L (0.1 mM) of PLP, and then the reaction mixture was incubated at 37° C. for 5 minutes. 0.1 mL of the reaction solution was collected and added to 1 mL of 1% (v/v) phosphoric acid to stop the reaction. Lysine and 1,5-PD were quantified with HPLC by a post column OPA method (S. R. Vale and M. B. Gloria, Journal Of AOAC International (1997) vol. 80, p. 1006-1012) or a method of quantifying remaining L-lysine using a biosensor BF-5 (Oji Scientific Instruments Co., Ltd.). One unit was defined as an activity that formed 1 μmol of 1,5-PD in one minute under this condition.
A combination mutant for increasing the amount of expressed CadA was constructed using QuikChange™ Site-Directed Mutagenesis Kit (Stratagene). A mutation to alter from Val (GTT) to Ile ([…]) at position 3 was introduced using the plasmid pCadA233 as the template and using oligonucleotides v3i_r (5′-cat gtg att caa tat tgc aat aat gtt cat cta cat tcc tcc tta cg-3′(SEQ ID NO:11)) and v3i_f (5′-cgt aag gag gaa tgt aga tga aca tta ttg caa tat tga atc aca tg-3′ (SEQ ID NO:12)) as primers according to a protocol. The nucleotide sequence of the constructed plasmid was determined by the method described in Example 2 to confirm that the objective mutation had been introduced, and this plasmid was designated as pCadA234. Microbial cells of E. coli JM109/pCadA234 expressing this double mutant CadA234 at high level were cultured to prepare a cell free extract in the same manner as in Example 2. The activity in this cell free extract was 663 U/mL, which was almost the same as that from the strain expressing the wild-type enzyme.
The resulting cell free extract was diluted to 20 fold with 0.1 M MES-NaOH buffer (pH 6.0). Each crude enzyme solution was incubated at 68° C., which is a higher temperature than in Example 2, and the remaining activity was measured over time. After incubation at 68° C. for one hour, the wild-type enzyme was inactivated to 27% while the single mutant enzymes V3I and A590T were inactivated to 47% and 27%, respectively. On the contrary, the double mutant enzyme retained 70% of its activity, and even after 3 hours, still retained about 60% of its activity (FIG. 1). Therefore, it was shown that the double mutation has a synergistic effect and further improved the thermal stability.

[2] = Enzyme activity of culture media of expressing strains after heat treatment with or without disruption; format: cell-based, Escherichia coli
Method: as §1
Microbial cells of E. coli JM109/pCadA220 and E. coli JM109/pCadA234 carrying the wild-type CadA and the double mutant CadA, respectively were cultured in the LB medium. Subsequently, 15 mL of the cultured medium was inoculated into 300 mL of culture medium (25 g/L of glucose, 5 g/L of ammonium sulfate, 2 g/L of potassium phosphate, 1 g/L of magnesium sulfate heptahydrate, 20 mg/L of iron sulfate heptahydrate, 20 mg/L of manganese sulfate pentahydrate, 1 mg/L of thiamine hydrochloride, 0.45 g/L of hydrolyzed soybeans, pH 7.0) in a 500 mL jar fermenter (manufactured by ABLE & Biott Co., Ltd.), and cultured with ventilation at 300 mL/minute while stirring at 250 rpm at 30° C. for 12 hours. Culture media containing 10.1 g/L and 10.9 g/L of microbial cells in terms of dry microbial cell weight were able to be prepared for E. coli JM109/pCadA220 and E. coli JM109/pCadA234, respectively. For the purpose of improving substrate permeability, the pH value was adjusted to 5.5, and subsequently the culture media were incubated at 55° C. and 60° C., and then the culture media were directly used to measure the activity after the incubation.
Since the lysine decarboxylase is expressed within the microbial cell, when the microbial cell is used directly, lysine cannot react with the lysine decarboxylase, and the efficiency of a decarboxylation reaction is very poor. […] However, the wild-type enzyme was inactivated during the incubation when heated excessively. The mutated enzyme having the improved thermal stability could stably keep its activity even when using conditions where the wild-type enzyme was easily inactivated as shown in Example 2. When the microbial cells carrying such a mutated enzyme were used, efficient treatment in a short period of time was possible. This has shown that the mutated enzyme not only can act at higher temperature upon reaction but also can be easily used when the microbial cell is directly used.

[3] = Inhibition of enzyme activity by iron ion and effect of chelating agent EDTA; format: biochemical, Escherichia coli
Method: as §1
Cell free extracts were prepared from the strain expressing wild-type CadA and the strain overexpressing double mutant CadA, respectively in the same manner as in Examples 2 and 3. Using the resulting cell free extract, iron sulfate heptahydrate (Nacalai Tesque Inc.) at a final concentration of […] (2 mM) was added to the composition shown in Example 1, and an inhibitory effect was measured. […]

[4] = Lysine decarboxylation reaction (1,5-PD production) in the presence of chelating agent; design: species or system Escherichia coli; settings: 0.1 mM iron sulfate, 0.3 mM EDTA added, 37° C., 16 hours
Method: In the same manner as in Example 4, microbial cells of E. coli JM109/pCadA234 (double mutant expressing CadA at high level) were cultured, the cultured medium was prepared, and after completing the cultivation, incubated at 60° C. for one hour. The activity after incubation was measured, and the cultured medium was diluted so that the enzyme activity became 380 units/mL. 30 mL of this cultured medium containing the enzyme was added to 270 mL of a reaction solution containing 250 g/L of lysine hydrochloride (Ajinomoto Co., Ltd.), 26.5 mg/L of pyridoxal phosphate, 27.8 mg/L (0.1 mM) of iron sulfate heptahydrate and 111.6 mg/L (0.3 mM) of disodium dihydrogen ethylenediaminetetraacetate (EDTA), and the mixture was reacted at 37° C. for 16 hours. No EDTA was added in a control reaction. The pH value was 5.3 when the reaction was started, and elevated with progress of the reaction, but was kept at 7.0 by adding 30% (v/v) sulfuric acid when the pH value reached 7.0.
On the other hand, when EDTA was added, the inhibition of the reaction is restored and lysine was completely consumed. When EDTA was added, 135 g/L of 1,5-PD was formed and lysine was converted at a yield of 98%. […]

[5] = Incubation at 55° C. for 1 h, Disruption
[6] = Incubation at 55° C. for 1 h, physical treatment None
[7] = Incubation at 55° C. for 3 h, Disruption
[8] = Incubation at 55° C. for 3 h, physical treatment None
[9] = Incubation at 60° C. for 1 h, Disruption
[10] = Incubation at 60° C. for 1 h, physical treatment None
[11] = No heat treatment, physical treatment None

B1: pCadA234: lysine decarboxylase (CadA) V3I/A590T double mutant (protein, UniProt P0A9H3 1-715, looked up, variant V3I A590T)
Inducible lysine decarboxylase: MNIIAILNHMGVYFKEEPIRELHRALERLNFQIVYPNDRDDLLKLIENNARLCGVIFDWDKYNLELCEEISKMNENLPLYAFANTYSTLDVSLNDLRLQISFFEYALGAAEDIANKIKQTTDEYINTILPPLTKALFKYVREGKYTFCTPGHMGGTAFQKSPVGSLFYDFFGPNTMKSDISISVSELGSLLDHSGPHKEAEQYIARVFNADRSYMVTNGTSTANKIVGMYSAPAGSTILIDRNCHKSLTHLMMMSDVTPIYFRPTRNAYGILGGIPQSEFQHATIAKRVKETPNATWPVHAVITNSTYDGLLYNTDFIKKTLDVKSIHFDSAWVPYTNFSPIYEGKCGMSGGRVEGKVIYETQSTHKLLAAFSQASMIHVKGDVNEETFNEAYMMHTTTSPHYGIVASTETAAAMMKGNAGKRLINGSIERAIKFRKEIKRLRTESDGWFFDVWQPDHIDTTECWPLRSDSTWHGFKNIDNEHMYLDPIKVTLLTPGMEKDGTMSDFGIPASIVAKYLDEHGIVVEKTGPYNLLFLFSIGIDKTKALSLLRALTDFKRAFDLNLRVKNMLPSLYREDPEFYENMRIQELTQNIHKLIVHHNLPDLMYRAFEVLPTMVMTPYAAFQKELHGMTEEVYLDEMVGRINANMILPYPPGVPLVMPGEMITEESRPVLEFLQMLCEIGAHYPGFETDIHGAYRQADGRYTVKVLKEESKK
- remaining activity after incubation at 68° C. for one hour ([1]; 68° C., 1 hour, FIG. 1): 70%
- remaining activity after incubation at 68° C. for 3 hours ([1]; 68° C., 3 hours, FIG. 1): about 60%
- activity in cell free extract ([1]; before incubation): 663 U/mL
- Enzyme activity [2, 5]: 758 units/ml
- Relative activity [2, 5]: 98.4%
- Enzyme activity [2, 6]: 475 units/ml
- Relative activity [2, 6]: 61.7%
- Enzyme activity [2, 7]: 659 units/ml
- Relative activity [2, 7]: 85.5%
- Enzyme activity [2, 8]: 601 units/ml
- Relative activity [2, 8]: 78.0%
- Enzyme activity [2, 9]: 754 units/ml
- Relative activity [2, 9]: 97.9%
- Enzyme activity [2, 10]: 426 units/ml
- Relative activity [2, 10]: 55.3%
- Enzyme activity ([2]; No heat treatment, Disruption): 770 units/ml
- Relative activity ([2]; No heat treatment, Disruption): 100%
- Enzyme activity [2, 11]: 16.0 units/ml
- Relative activity [2, 11]: 2.1%
- activity with 2 mM iron ion, of the activity when no iron ion was added ([3]; 2 mM iron ion, no EDTA): 64.7%
- Enzyme activity ([3]; FeSO4 2 mM, EDTA 0.5 mM): 677 units/ml
- Enzyme activity ([3]; FeSO4 2 mM, EDTA 1 mM): 680 units/ml
- Enzyme activity ([3]; FeSO4 2 mM, EDTA 2 mM): 677 units/ml
- Enzyme activity ([3]; FeSO4 2 mM, EDTA 4 mM): 672 units/ml
- Enzyme activity ([3]; FeSO4 2 mM, EDTA 5 mM): 669 units/ml
- Enzyme activity ([3]; FeSO4 2 mM, EDTA None): 443 units/ml
- Enzyme activity ([3]; FeSO4 None, EDTA 2 mM): 677 units/ml
- Enzyme activity ([3]; FeSO4 None, EDTA None): 685 units/ml
- yield of lysine conversion [4]: 98%
